T1: Bovine, dephosphorylated, Myelin Basic Protein (MBP), P02687
T1 chain: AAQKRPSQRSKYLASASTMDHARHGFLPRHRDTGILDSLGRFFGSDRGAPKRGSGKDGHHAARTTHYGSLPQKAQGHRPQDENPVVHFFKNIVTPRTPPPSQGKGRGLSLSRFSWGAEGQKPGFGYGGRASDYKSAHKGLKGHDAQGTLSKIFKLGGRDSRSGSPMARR


Biological target: T1, Bovine, dephosphorylated, Myelin Basic …

Protein	MBP Kinase Activity
IRAK4 (protein) MNKPITPSTYVRCLNVGLIRKLSDFIDPQEGWKKLAVAIKKPSGDDRYNQFHIRRFEALLQTGKSPTSELLFDWGTTNCTVGDLVDLLIQNEFFAPASLLLPDAVPKTANTLPSKEAITVQQKQMPFCDKDRTLMTPVQNLEQSYMPPDSSSPENKSLEVSDTRFHSFSFYELKNVTNNFDERPISVGGNKMGEGGFGVVYKGYVNNTTVAVKKLAAMVDITTEELKQQFDQEIKVMAKCQHENLVELLGFSSDGDDLCLVYVYMPNGSLLDRLSCLDGTPPLSWHMRCKIAQGAANGINFLHENHHIHRDIKSANILLDEAFTAKISDFGLARASEKFAQTVMTSRIVGTTAYMAPEALRGEITPKSDIYSFGVVLLEIITGLPAVDEHREPQLLLDIKEEIEDEEKTIEDYIDKKMNDADSTSVEAMYSVASQCLHEKKNKRPDIKKVQQLLQEMTAS	Strong
EPHA5 (protein) SGSCCECGCGRASSLCAVAHPSLIWRCGYSKAKQDPEEEKMHFHNGHIKLPGVRTYIDPHTYEDPNQAVHEFAKEIEASCITIERVIGAGEFGEVCSGRLKLPGKRELPVAIKTLKVGYTEKQRRDFLGEASIMGQFDHPNIIHLEGVVTKSKPVMIVTEYMENGSLDTFLKKNDGQFTVIQLVGMLRGISAGMKYLSDMGYVHRDLAARNILINSNLVCKVSDFGLSRVLEDDPEAAYTTRGGKIPIRWTAPEAIAFRKFTSASDVWSYGIVMWEVVSYGERPYWEMTNQDVIKAVEEGYRLPSPMDCPAALYQLMLDCWQKERNSRPKFDEIVNMLDKLIRNPSSLKTLVNASCRVSNLLAEHSPLGSGAYRSVGEWLEAIKMGRYTEIFMENGYSSMDAVAQVTLEDLRRLGVTLVGHQKKIMNSLQEMKVQLVNGMVPL	Negative

Reference: patent US20090099029
